Values quoted from earlier work, collected in article PMC4616163, “Inverse relationship between chitobiase and transglycosylation activities of chitinase-D from Serratia proteamaculans revealed by mutational and biophysical analyses” (Scientific Reports, 2015).

Set-up: method as in PMID 11160110, PMID 18368288
Details: other chitinases, literature

B1: SmChiA: mesophilic chitinase (protein, UniProt P07254 24-563, looked up)
Chitinase A: AAPGKPTIAWGNTKFAIVEVDQAATAYNNLVKVKNAADVSVSWNLWNGDAGTTAKILLNGKEAWSGPSTGSSGTANFKVNKGGRYQMQVALCNADGCTASDATEIVVADTDGSHLAPLKEPLLEKNKPYKQNSGKVVGSYFVEWGVYGRNFTVDKIPAQNLTHLLYGFIPICGGNGINDSLKEIEGSFQALQRSCQGREDFKVSIHDPFAALQKAQKGVTAWDDPYKGNFGQLMALKQAHPDLKILPSIGGWTLSDPFFFMGDKVKRDRFVGSVKEFLQTWKFFDGVDIDWEFPGGKGANPNLGSPQDGETYVLLMKELRAMLDQLSAETGRKYELTSAISAGKDKIDKVAYNVAQNSMDHIFLMSYDFYGPFDLKNLGHQTALNAPAWKPDTAYTTVNGVNALLAQGVKPGKVVVGTAMYGRGWTGVNGYQNNIPFTGTATGPVKGTWKNGIVDYRQIAGQFMSGEWQYTYDATAEAPYVFKPSTGDLITFDDARSVQAKGKYVLDKQLGGLFSWEIDADNGDILNSMNASLGNSAGVQ
Tm: 64.2 °C
